According to patent US6432920B1, “Nck SH3 binding peptides” (Cytogen Corporation, priority 1994, dated 2002):
Entries after “also recorded” stand apart in the source; their conditions may differ.

Columns and labels:
Src SH3-GST = biological target: T1, Src SH3-GST (Homo sapiens, UniProt P12931); assay: Biotinylated synthetic peptide binding ELISA to immobilized Src SH3-GST; conditions: for binding to Src SH3 domain (Src SH3-GST): 10 μM biotinylated peptide, streptavidin-alkaline phosphatase ELISA, FIGS. 7 and 8; for relative specificity of binding for SH3 domains of different proteins: Src family versus Grb2, Crk, Abl, PLCγ SH3 domains, FIG. 8
T1 construct: Bacterially expressed Src SH3 glutathione-S-transferase (Src-GST) fusion protein was purified from bacterial lysates; made in house; host or cells: bacteria (pGEX vector)
Method: (§1) These biotinylated peptides were assayed for direct binding to immobilized Src SH3-GST. […] Furthermore, a strong correlation was observed between the similarity of a given peptide to the preferred core consensus sequence RPLP(P/M)LP (SEQ ID NO:96) and the peptide's affinity for Src SH3-GST.
(§2) The preparation of Src-GST fusion protein was first described by Smith and Johnson, in Gene (1988) 67:31, the disclosure of which is incorporated by reference herein. Briefly, pGEX-derived (Pharmacia, Piscataway, N.J.) constructs expressing GST fusion proteins containing the SH3 domains of Src, Grb2, Crk, Abl, or PLCγ were obtained from Dr. Channing Der (University of North Carolina at Chapel Hill); a construct expressing the SH3 domain of Yes was obtained from Dr. Marius Sudol (Rockefeller University). The use of the pGEX bacterial expression vector for the production of GST-SH3 fusion proteins is well-known to those in the art. See, e.g., Cicchetti, P. et al., in Science (1992) 257:803-806. Briefly, the coding region for a particular SH3 domain can be fused in-frame at the Bam HI site of pGEX-2T. Thus, fusion proteins were prepared as per the manufacturer's instructions, and quantified by Coomassie Blue staining of SDS-polyacrylamide gels. Microtiter wells were coated with 5-20 μg GST-SH3 fusion protein in 100 mM NaHCO3, pH 8.5, blocked with 100 mM NaHCO3 (pH 8.5) 1% BSA, and washed. All washes consisted of five applications of 1XPBS, 0.1% Tween 20, 0.1% BSA (Buffer A). Where appropriate, the amount of protein bound to each well was quantified with an anti-GST antibody-based ELISA (Pharmacia, Piscataway, N.J.), and with a GST-binding phage, isolated during the course of this work.
Bacterially expressed Src SH3 glutathione-S-transferase (Src-GST) fusion protein was purified from bacterial lysates using glutathione agarose 4B (Pharmacia), according to the manufacturer's instructions. Bound Src-GST fusion protein was eluted from the glutathione agarose with 10 mM glutathione in PBS. Microtiter wells were then coated with Src-GST fusion protein (1-10 μg/well, in 50 mM NaHCO3, pH 8.5) overnight at 4° C. To block non-specific binding of phage, 100 μL 1% BSA in 100 mM NaHCO3, pH 8.5, was added to each well and allowed to incubate at room temperature for 1 hour. The wells were then washed five times with 200 μL PBS, 0.1% Tween™ 20, 0.1% BSA (Buffer A).
(§3) Peptides were obtained from Research Genetics (Birmingham, Ala.), Chiron Mimotopes (Victoria, Australia), or synthesized by conventional techniques by Dr. J. Mark Carter of Cytogen Corporation (Princeton, N.J.). Peptide purity was assessed by HPLC and/or mass spectrometry. Biotinylated peptides were synthesized with either a KSGSG (SEQ ID NO:103) or a GSGS (SEQ ID NO:104) peptide linker (a spacer) between the biotin and the N-terminus of the peptide. Binding experiments were performed as above, excepting the use of 10 μM peptide instead of phage. Bound biotinylated peptide was detected with streptavidin conjugated to alkaline phosphatase (Sigma Chemical Co., St. Louis, Mo.). After one hour incubation period at room temperature, the wells were washed, and a solution of 3 mM p-nitrophenyl-phosphate (US Biochemicals, Cleveland, Ohio) in 50 mM NaCO3 (pH 9.8), and 50 mM MgCl2 was added and color allowed to develop. Signals were read with an ELISA plate reader (Molecular Devices, Menlo Park, Calif.) at 405 nm wavelength. Binding experiments were performed in triplicate.

Grb2-GST = biological target: T2, Grb2-GST (Homo sapiens, UniProt P62993); assay: Biotinylated synthetic peptide binding ELISA to immobilized Grb2-GST; conditions: 10 μM biotinylated peptide, FIG. 8
T2 construct: made in house; host or cells: bacteria (pGEX vector)
T2 sequence (P62993 whole entry): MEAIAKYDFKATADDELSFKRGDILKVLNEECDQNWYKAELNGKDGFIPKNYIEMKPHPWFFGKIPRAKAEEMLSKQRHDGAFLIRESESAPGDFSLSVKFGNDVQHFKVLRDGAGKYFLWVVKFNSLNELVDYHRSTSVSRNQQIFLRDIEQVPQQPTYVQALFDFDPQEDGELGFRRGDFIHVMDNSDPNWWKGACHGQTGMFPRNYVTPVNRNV
Method: (§4) As mentioned above, the relative specificity of binding was explored. Thus, the relative binding of Src SH3-selected peptides to equal amounts of GST fusions to SH3 domains from different proteins was determined (FIG. 8). While all of the library-derived peptides bound the Src and Yes SH3 domains almost equally well, none of the peptides (with the exception of peptide T12.SRC3.1, the most divergent peptide tested) bound the SH3 domains of Grb2, Crk, Abl or PLCγ1 appreciably.
as §2, with “Briefly, the coding region for a particular SH3 domain can be fused in-frame at the Bam HI site of pGEX-2T.” left out, “Microtiter wells were coated with 5-20 μg GST-SH3 fusion protein in 100 mM NaHCO3, pH 8.5, blocked with 100 mM NaHCO3 (pH 8.5) 1% BSA, and washed. All washes consisted of five applications of 1XPBS, 0.1% Tween 20, 0.1% BSA (Buffer A).” left out
(§5) Peptides were obtained from Research Genetics (Birmingham, Ala.), Chiron Mimotopes (Victoria, Australia), or synthesized by conventional techniques by Dr. J. Mark Carter of Cytogen Corporation (Princeton, N.J.). Peptide purity was assessed by HPLC and/or mass spectrometry. […] Bound biotinylated peptide was detected with streptavidin conjugated to alkaline phosphatase (Sigma Chemical Co., St. Louis, Mo.). […] Signals were read with an ELISA plate reader (Molecular Devices, Menlo Park, Calif.) at 405 nm wavelength. […]

Yes SH3-GST = biological target: T3, Yes SH3-GST (Homo sapiens, UniProt P07947); assay: Biotinylated synthetic peptide binding ELISA to immobilized Yes SH3-GST; conditions: 10 μM biotinylated peptide, FIG. 8
T3 construct: a construct expressing the SH3 domain of Yes was obtained from Dr. Marius Sudol (Rockefeller University); made in house; host or cells: bacteria (pGEX vector)
T3 sequence (P07947 91-152 limits assumed): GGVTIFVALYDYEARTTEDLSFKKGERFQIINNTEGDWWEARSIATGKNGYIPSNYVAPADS
Method: as §1, §2, §3

PLCγ1 SH2SH3-GST = assay: Biotinylated synthetic peptide binding ELISA to immobilized PLCγ1 SH2SH3-GST; conditions: 10 μM biotinylated peptide, FIG. 8
Method: as §4
as §2, with “Briefly, the coding region for a particular SH3 domain can be fused in-frame at the Bam HI site of pGEX-2T.” left out, “Microtiter wells were coated with 5-20 μg GST-SH3 fusion protein in 100 mM NaHCO3, pH 8.5, blocked with 100 mM NaHCO3 (pH 8.5) 1% BSA, and washed. All washes consisted of five applications of 1XPBS, 0.1% Tween 20, 0.1% BSA (Buffer A).” left out
as §5

Xenopus laevis oocytes = assay: Progesterone-induced X. laevis oocyte maturation (germinal vesicle breakdown); type: cell-based; conditions: oocytes injected with 40 nL of 100 μM test peptide, 2 μg/mL progesterone; relative to water
Method: Briefly, Stage VI oocytes were prepared and injected as previously described (see, Kay, B. K., in Methods in Cell Biol. (1991) 36:663-669). Oocytes were injected with 40 nL of 100 μM test peptide or water. After injection, the oocytes were placed in 2 μg/mL progesterone (Sigma, St. Louis, MO) and scored hourly for germinal vesicle breakdown (GVBD). LAPPKPPLPEGEV is SEQ ID NO:70.
Moreover, Xenopus laevis oocytes injected with mRNA encoding constitutively active Src undergo progesterone-induced maturation at an accelerated rate relative to oocytes injected with water or c-Src mRNA. Unger, T. F. and Steele, R. E. in Mol. Cell. Biol. (1992) 12:5485-5498. To explore the ability of the library-derived Src SH3-binding peptides to exert a biochemical effect in vivo, the influence of the peptides on the maturation of Xenopus laevis oocytes was examined. […] The magnitude of this effect is roughly equivalent to that seen with injection of mRNA encoding constituitively active Src. See, e.g., FIG. 3B in Unger, T. F. and Steele, R. E., supra. […]
Segments of adult ovary were removed surgically and incubated in 0.1% collagenase type D (Boehringer Mannheim, Indianapolis, Ind.) in Ca^2+-free OR2 (82.5 mM NaCl, 2.5 mM KCl, 1.0 mM MgCl2, 1.0 mM Na2HPO4, 5.0 mM HEPES, and 3.8 mM NaOH, pH 7.6). […] Oocytes were scored at hourly time points for germinal vesicle breakdown (GVBD).

[1] = biological target: Src and PI-3′ Kinase SH3 domains; conditions: Yu et al., biased synthetic peptide library; read-out: binding affinity; cited from earlier work
[2] = biological target: cellular Src of Xenopus laevis oocytes (Xenopus laevis); assay: cell-based or functional assay

ANPSPATRPLPTR [synthetic peptide of phage clone T12.SRC3.2]
binding to Src SH3 domain (Src SH3-GST) (Src SH3-GST): comparable to the core consensus sequence | binding to Src SH3 domain (Src SH3-GST) (Src SH3-GST; listed as APSPATRPLPTR): avid binding affinity | relative specificity of binding for SH3 domains of different proteins (Src SH3-GST): Src family specificity

GILAPPVPPRNTR [synthetic peptide of phage clone T12.SRC3.1]
binding to Grb2 SH3 domain (Grb2-GST) (Grb2-GST): binds generically | binding to Src SH3 domain (Src SH3-GST) (Src SH3-GST): much more avidly; also recorded: binds generically; also recorded: avid binding affinity | relative specificity of binding for SH3 domains of different proteins (Src SH3-GST): binds generically to a broad range of SH3 domains; also recorded: more generic SH3 domain-binding characteristics | binding to Yes SH3 domain (Yes SH3-GST) (Yes SH3-GST): much more avidly | binding to PLCγ SH3 domain (PLCγ1 SH2SH3-GST) (PLCγ1 SH2SH3-GST): binds generically

GPHRRLPPTPATR [synthetic peptide of phage clone T12.SRC3.3]
binding to Grb2 SH3 domain (Grb2-GST) (Grb2-GST): little affinity | binding to Src SH3 domain (Src SH3-GST) (Src SH3-GST): much more avidly; also recorded: avid binding affinity | relative specificity of binding for SH3 domains of different proteins (Src SH3-GST): specific to src family SH3 domains | binding to Yes SH3 domain (Yes SH3-GST) (Yes SH3-GST): much more avidly | binding to PLCγ SH3 domain (PLCγ1 SH2SH3-GST) (PLCγ1 SH2SH3-GST): little affinity

GTVEPVPPPVPPRRRPESA [reference compound]
binding to Src SH3 domain (Src SH3-GST) (Src SH3-GST): much less well

KISPPTPKPRPPRPLPV [reference compound]
binding to Src SH3 domain (Src SH3-GST) (Src SH3-GST): much less well

LAPPKPPLPEGEV [proline-rich region of the cytoskeletal protein vinculin, control peptide, reference compound]
rate of progesterone-induced oocyte maturation (germinal vesicle breakdown) (Xenopus laevis oocytes): not | binding to Src SH3 domain (Src SH3-GST) (Src SH3-GST): much less well

RKLPPRPRR [“composite” peptide of Yu et al]
Kd [1]: 7.6 µM

RPLPPLP
binding to Src SH3 domain (Src SH3-GST) (Src SH3-GST): less effective; also recorded: only weakly

RSTPRPLPMLPTTR [synthetic peptide of phage clone R8C.YES3.5]
binding to Src SH3 domain (Src SH3-GST) (Src SH3-GST): much more avidly; also recorded: strong specific binding affinity | relative specificity of binding for SH3 domains of different proteins (Src SH3-GST): highly specific | binding to Yes SH3 domain (Yes SH3-GST) (Yes SH3-GST): much more avidly

RSTPRPLPPLPTTR [representative consensus motif with flanking residues of R8C.YES3.5]
binding to Src SH3 domain (Src SH3-GST) (Src SH3-GST): much more avidly; also recorded: strong specific binding affinity | relative specificity of binding for SH3 domains of different proteins (Src SH3-GST): highly specific | binding to Yes SH3 domain (Yes SH3-GST) (Yes SH3-GST): much more avidly

VLKRPLPIPPVTR [synthetic peptide of phage clone T12.SRC3.6]
binding to Grb2 SH3 domain (Grb2-GST) (Grb2-GST): some binding affinities | rate of progesterone-induced oocyte maturation (germinal vesicle breakdown) (Xenopus laevis oocytes): faster rate; also recorded: increased rate | binding to Src SH3 domain (Src SH3-GST) (Src SH3-GST): much more avidly; also recorded: strong binding affinities; also recorded: avid binding affinity | relative specificity of binding for SH3 domains of different proteins (Src SH3-GST): Src preferential | binding to Yes SH3 domain (Yes SH3-GST) (Yes SH3-GST): much more avidly | binding to PLCγ SH3 domain (PLCγ1 SH2SH3-GST) (PLCγ1 SH2SH3-GST): little binding affinities

B1: … (peptide)
peptide: VLKRPLPIPPVTR
modifications: not checked
rate of progesterone-induced maturation of Xenopus laevis oocytes (germinal vesicle breakdown) [2]: 1 h
